Experimental data taken from patent US20020055467A1 (Biogen, published 2002).

Molecular target: T1, fusion protein between the extracellular domain of rat RET and placental alkaline phosphatase (rat, UniProt G3V9H8 24-637)
T1 construct: extracellular domain; Used as conditioned medium from 293 EBNA cells; Construct described in Sanicola et al. 1997; also called RET-AP
Test: ternary complex assay without ligand (parental CHO medium or straight medium)
Protocol: Dynex Microlite-1 ELISA plates (Dynex Technologies) were coated with 1 μg/ml goat antibody specific for human Fc in 50 mM bicarbonate/carbonate, pH 9.6 for 16 hr. The plates were emptied and filled with 300 μl of 1% I-block (Tropix) in TBS/0.5% Tween-20 (TBST), for 1 hr. After washing three times with TBST the wells were filled with 100 μl of 1 μg/ml rGFRα1-Ig or mGFRα3-Ig diluted in conditioned media from 293 EBNA cells expressing the RET-AP fusion gene. 100 ul of conditioned media from the CHO neublastin clones was then added to the top well of a column of wells, and 2 fold serial dilutions were performed down each row of wells, and incubated for 1.5 hr at room temperature. The plates were then washed three times with TBST, and twice with 200 mM Tris pH9.8, 10 mM MgCl₂ (CSPD buffer). The wash solution was then replaced with 425 μM CSPD (Tropix) in CSPD buffer containing 1 mg/ml Sapphire chemiluminescence enhancer (Tropix), and incubated for 30′ at room temperature. The chemiluminescent output was measured using a Dynatech luminometer.
The initial experiments investigated whether neublastin produced by the CHO cell lines could mediate the binding of GFRα1 or GFRα3 to the extracellular domain of RET.

T1 sequence (G3V9H8 24-637): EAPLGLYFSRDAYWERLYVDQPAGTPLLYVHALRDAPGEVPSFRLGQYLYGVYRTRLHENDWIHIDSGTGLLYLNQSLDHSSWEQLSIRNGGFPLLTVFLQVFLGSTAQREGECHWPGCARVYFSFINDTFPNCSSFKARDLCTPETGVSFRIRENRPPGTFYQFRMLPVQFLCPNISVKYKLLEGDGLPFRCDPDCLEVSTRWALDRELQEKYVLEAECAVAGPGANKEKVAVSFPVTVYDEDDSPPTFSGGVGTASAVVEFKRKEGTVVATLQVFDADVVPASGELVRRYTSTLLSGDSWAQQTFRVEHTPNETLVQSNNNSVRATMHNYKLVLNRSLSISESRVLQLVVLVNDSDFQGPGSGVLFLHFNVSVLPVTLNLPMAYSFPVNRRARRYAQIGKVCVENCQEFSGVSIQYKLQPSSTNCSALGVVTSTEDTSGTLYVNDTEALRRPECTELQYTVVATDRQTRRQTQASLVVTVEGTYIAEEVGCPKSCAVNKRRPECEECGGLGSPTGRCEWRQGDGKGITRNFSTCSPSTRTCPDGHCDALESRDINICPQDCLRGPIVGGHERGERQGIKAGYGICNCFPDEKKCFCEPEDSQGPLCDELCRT

B1: fusion protein between the extracellular domain of rat GFRα1 and the Fc domain of human IgG1 (Fc fusion, UniProt Q62997 25-430, looked up, not shown: a dimerising Fc or GST)
chain: DRLDCVKASDQCLKEQSCSTKYRTLRQCVAGKETNFSLTSGLEAKDECRSAMEALKQKSLYNCRCKRGMKKEKNCLRIYWSMYQSLQGNDLLEDSPYEPVNSRLSDIFRAVPFISDVFQQVEHISKGNNCLDAAKACNLDDTCKKYRSAYITPCTTSMSNEVCNRRKCHKALRQFFDKVPAKHSYGMLFCSCRDIACTERRRQTIVPVCSYEERERPNCLSLQDSCKTNYICRSRLADFFTNCQPESRSVSNCLKENYADCLLAYSGLIGTVMTPNYVDSSSLSVAPWCDCSNSGNDLEDCLKFLNFFKDNTCLKNAIQAFGNGSDVTMWQPAPPVQTTTATTTTAFRVKNKPLGPAGSENEIPTHVLPPCANLQAQKLKSNVSGSTHLCLSDSDFGKDGLAGASS
notes: extracellular domain; Construct described in Sanicola et al. 1997; also called rGFRα1-Ig
B1: no binding.
